Measured values from patent US20120141464A1 (ZENYTH OPERATIONS, published 2012).

T1: human GM-CSFRα (human, UniProt P15509 23-400)
T1 sequence: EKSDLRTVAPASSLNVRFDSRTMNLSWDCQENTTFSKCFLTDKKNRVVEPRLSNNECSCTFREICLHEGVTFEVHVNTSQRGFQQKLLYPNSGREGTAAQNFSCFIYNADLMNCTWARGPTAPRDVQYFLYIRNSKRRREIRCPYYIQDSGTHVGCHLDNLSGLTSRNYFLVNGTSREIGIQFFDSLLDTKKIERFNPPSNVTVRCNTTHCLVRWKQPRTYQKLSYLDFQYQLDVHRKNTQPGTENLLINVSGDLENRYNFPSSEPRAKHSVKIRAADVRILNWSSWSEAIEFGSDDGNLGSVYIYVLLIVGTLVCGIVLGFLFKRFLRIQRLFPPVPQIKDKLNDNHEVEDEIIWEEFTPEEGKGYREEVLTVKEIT

T2: recombinant purification-tagged human GM-CSF receptor α extracellular domain (human, UniProt P15509 23-320)
T2 construct: Amino acids 1 to 298 of the mature receptor; also called purified GM-CSFRα extracellular domain; soluble extracellular domain of GM-CSFRα; not shown: N-terminal purification tag; Flag-tagged
T2 sequence: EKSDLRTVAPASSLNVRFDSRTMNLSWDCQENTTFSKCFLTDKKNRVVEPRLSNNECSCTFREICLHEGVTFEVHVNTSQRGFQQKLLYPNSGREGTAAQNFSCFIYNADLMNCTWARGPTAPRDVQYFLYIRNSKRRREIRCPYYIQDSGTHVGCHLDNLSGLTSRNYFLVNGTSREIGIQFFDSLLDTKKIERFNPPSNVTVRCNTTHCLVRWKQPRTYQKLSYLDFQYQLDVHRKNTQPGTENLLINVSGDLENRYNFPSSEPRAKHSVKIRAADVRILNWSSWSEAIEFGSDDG


Columns and labels:
cynomolgus GM-CSFRα = cynomolgus GM-CSFRα (cynomolgus); test: cell-based or functional assay
human GM-CSFRα [1] = target: T1, human GM-CSFRα; test: cell-based or functional assay
[2] = target: T2, recombinant purification-tagged human …; test: SPR (BIAcore 2000); IgG4 captured on protein A, tagged receptor ECD as analyte; 1:1 Langmuir fit
human GM-CSFRα [3] = target: T1, human GM-CSFRα; test: cell-based or functional assay; remark: listed apart in the source
human GM-CSFRα [4] = target: T1, human GM-CSFRα; test: cell-based or functional assay; remark: listed apart in the source

Binder	IC50, cynomolgus granulocyte shape change assay (cynomolgus GM-CSFRα) [nM]	IC50, TF-1 proliferation assay (7 pM human GM-CSF) (human GM-CSFRα [1]) [pM]	Kd [2] [nM]	IC50, human granulocyte shape change assay (7 pM human GM-CSF) (human GM-CSFRα [3]) [pM]	IC50, monocyte TNFα release assay (1 nM human GM-CSF) (human GM-CSFRα [4]) [nM]
Antibody 3 (28G5), parent antibody (antibody, V domains shown) VH: QVQLVQSGAEVKKPGASVKVSCKISGHSLSELSIHWVRQTPTKGFEWMGGFDPEENEIVYAQRFQGRVTMTEDTSIDTAYLTLSSLRSDDTAVYYCSIVGSFSGWAFDYWGKGTMVTVSS VL: QAVLTQPSSVSGAPGQRVTISCTGSGSNIGAPYDVSWYQQLPGTAPKLLIYHNNKRPSGVPDRFSASKSGTSASLAITGLQADDEADYYCQSYDSSLSGSVFGGGTKVTVL	~5	–	–	–	–
Antibody 4 (antibody, V domains shown, also called Antibody 04; Ab4) VH: QVQLVQSGAEVKKPGASVKVSCKISGHSLSELSIHWVRQTPTKGFEWMGGFDPEENEIVYAQRFQGRVTMTEDTSIDTAYLTLSSLRSDDTAVYYCAIVGSFSPPTYGYWGKGTMVTVSS VL: QAVLTQPSSVSGAPGQRVTISCTGSGSNIGAPYDVSWYQQLPGTAPKLLIYHNNKRPSGVPDRFSASKSGTSASLAITGLQADDEADYYCQSYDSSLSGSVFGGGTKVTVL	–	48	4.07	–	–
Antibody 10 (antibody, V domains shown, also called Ab10) VH: QVQLVQSGAEVKKPGASVKVSCKISGHSLSELSIHWVRQTPTKGFEWMGGFDPEENEIVYAQRFQGRVTMTEDTSIDTAYLTLSSLRSDDTAVYYCAIVGSFSGLAYRPWGKGTMVTISS VL: QAVLTQPSSVSGAPGQRVTISCTGSGSNIGAPYDVSWYQQLPGTAPKLLIYHNNKRPSGVPDRFSASKSGTSASLAITGLQADDEADYYCQSYDSSLSGSVFGGGTKVTVL	–	55.3	1.5	62	0.139
Antibody 15 (antibody, V domains shown, also called Ab15) VH: QVQLVQSGAEVKKPGASVKVSCKISGHSLSELSIHWVRQTPTKGFEWMGGFDPEENEIVYAQRFQGRVTMTEDTSIDTAYLTLSSLRSDDTAVYYCSIAGSIPGWAFDYWGKGTMVTVSS VL: QAVLTQPSSVSGAPGQRVTISCTGSGSNIGAPYDVSWYQQLPGTAPKLLIYHNNKRPSGVPDRFSASKSGTSASLAITGLQADDEADYYCQSYDSQLISAAFGGGTKVTVL	–	164	1.03	–	–
Antibody 12 (antibody, V domains shown, also called Ab12) VH: QVQLVQSGAEVKKPGASVKVSCKISGHSLSELSIHWVRQTPTKGFEWMGGFDPEENEIVYAQRFQGRVTMTEDTSIDTAYLTLSSLRSDDTAVYYCSIVGSFSGWAFDYWGKGTMVTVSS VL: QAVLTQPSSVSGAPGQRVTISCTGSGSNIGAPYDVSWYQQLPGTAPKLLIYHNNKRPSGVPDRFSASKSGTSASLAITGLQADDEADYYCQSYDSEPTEIRFGGGTKLTVL	–	246	3.02	–	–
Antibody 9 (antibody, V domains shown) VH: QVQLVQSGAEVKKPGASVKVSCKISGHSLSELSIHWVRQTPTKGFEWMGGFDPEENEIVYAQRFQGRVTMTEDTSIDTAYLTLSSLRSDDTAVYYCAIVGSFSPVTYGLWGQGTMVTVSS VL: QAVLTQPSSVSGAPGQRVTISCTGSGSNIGAPYDVSWYQQLPGTAPKLLIYHNNKRPSGVPDRFSASKSGTSASLAITGLQADDEADYYCQSYDSSLSGSVFGGGTKVTVL	–	40.8	–	44	0.074
Antibody 7 (antibody, V domains shown, also called Antibody 07; Ab7) VH: QVQLVQSGAEVKKPGASVKVSCKISGHSLSELSIHWVRQTPTKGFEWMGGFDPEENEIVYAQRFQGRVTMTEDTSIDTAYLTLSSLRSDDTAVYYCAIVGSFSGPVYGLWGKGTMVTVSS VL: QAVLTQPSSVSGAPGQRVTISCTGSGSNIGAPYDVSWYQQLPGTAPKLLIYHNNKRPSGVPDRFSASKSGTSASLAITGLQADDEADYYCQSYDSSLSGSVFGGGTKVTVL	–	93.8	3.93	–	–
Antibody 16 (antibody, V domains shown, also called Ab16) VH: QVQLVQSGAEVKKPGASVKVSCKISGHSLSELSIHWVRQTPTKGFEWMGGFDPEENEIVYAQRFQGRVTMTEDTSIDTAYLTLSSLRSDDTAVYYCSIVGSFSPLTMGLWGKGTMVTVSS VL: QAVLTQPSSVSGAPGQRVTISCTGSGSNIGAPYDVSWYQQLPGTAPKLLIYHNNKRPSGVPDRFSASKSGTSASLAITGLQAEDEADYYCATSDEILSGSVFGGGTKVTVL	–	12.8	1.14	16	–
Antibody 11 (antibody, V domains shown) VH: QVQLVQSGAEVKKPEASVKVSCKIPGHSLSELSIHWVRQTPTKGFEWMGGFDPEENEIVYAQRFQGRVTMTEDTSIDTAYLTLSSLRSDDTAVYYCAIVGSFSPITYGLWGKGTMVTVSS VL: QAVLTQPSSVSGVPGQRVTISCTGSGSNIGAPYDVSWYQQLPGTAPKLLIYHNNKRPSGVPDRFSASKSGTSASLAITGLQADDEADYYCQSYDSSLSGSVFGGGTKVTVL	–	9	–	90	–

Other lines, results leading:

IC50, cynomolgus granulocyte shape change assay (cynomolgus GM-CSFRα) [nM]	IC50, TF-1 proliferation assay (7 pM human GM-CSF) (human GM-CSFRα [1]) [pM]	Kd [2] [nM]	IC50, human granulocyte shape change assay (7 pM human GM-CSF) (human GM-CSFRα [3]) [pM]	IC50, monocyte TNFα release assay (1 nM human GM-CSF) (human GM-CSFRα [4]) [nM]	Binder
–	23.8	0.388	–	–	Antibody 19 (antibody, V domains shown, also called Ab19) VH: QVQLVQSGAEVKKPGASVKVSCKISGHSLSELSIHWVRQTPTKGFEWMGGFDPEENEIVYAQRFQGRVTMTEDTSIDTAYLTLSSLRSDDTAVYYCAIVGSVSRITYGFWGKGTMVTVSS VL: QAVLTQPSSVSGAPGQRVTISCTGSGSNIGAPYDVSWYQQLPGTAPKLLIYHNNKRPSGVPDRFSASKSGTSASLAITGLQADDEADYYCQSYDSRNPHVIFGGGTKLTVL
–	0.97	0.139	13.3	0.043	Antibody 6, non-germlined IgG4 (antibody, V domains shown) VH: QVQLVQSGAEVKKPGASVKVSCKISGHSLSELSIHWVRQTPTKGFEWMGGFDPEENEIVYAQRFQGRVTMTEDTSIDTAYLTLSSLRSDDTAVYYCSIVGSFSPLTLGLWGKGTMVTVSS VL: QAVLTQPSSVSGAPGQRVTISCTGSGSNIGAPYDVSWYQQLPGTAPKLLIYHNNKRPSGVPDRFSASKSGTSASLAITGLQADDEADYYCATVEAGLSGSVFGGGTKLTVL
–	34.5	0.552	–	–	Antibody 8 (antibody, V domains shown, also called Antibody 08; Ab8) VH: QVQLVQSGAEVKKPGASVKVSCKISGHSLSELSIHWVRQTPTKGFEWMGGFDPEENEIVYAQRFQGRVTMTEDTSIDTAYLTLSSLRSDDTAVYYCAIVGSFSPPAYRPWGKGTMVTVSS VL: QAVLTQPSSVSGAPGQRVTISCTGSGSNIGAPYDVSWYQQLPGTAPKLLIYHNNKRPSGVPDRFSASKSGTSASLAITGLQADDEADYYCQSYDSSLSGSVFGGGTKVTVL
–	9.8	0.127	7.8	–	Antibody 20 (antibody, V domains shown, also called Ab20) VH: QVQLVQSGAEVKKPGASVKVSCKISGHSLSELSIHWVRQTPTKGFEWMGGFDPEENEIVYAQRFQGRVTMTEDTSIDTAYLTLSSLRSDDTAVYYCSIVGSFSPLTLGLWGKGTMVTVSS VL: QAVLTQPSSVSGAPGQRVTISCTGSGSNIGAPYDVSWYQQLPGTAPKLLIYHNNKRPSGVPDRFSASKSGTSASLAITGLQADDEADYYCATVDEALSGSVFGGGTKVTVL
–	16.3	0.502	–	–	Antibody 14 (antibody, V domains shown, also called Ab14) VH: QVQLVQSGAEVKKPGASVKVSCKISGHSLSELSIHWVRQTPTKGFEWMGGFDPEENEIVYAQRFQGRVTMTEDTSIDTAYLTLSSLRSDDTAVYYCSILGSVTAWAFDYWGKGTMVTVSS VL: QAVLTQPSSVSGAPGQRVTISCTGSGSNIGAPYDVSWYQQLPGTAPKLLIYHNNKRPSGVPDRFSASKSGTSASLAITGLQADDEADYYCQSYDSEDRMTEFGGGTKVTVL
–	9.3	0.847	30	0.067	Antibody 5 (antibody, V domains shown, also called Antibody 05; Ab5) VH: QVQLVQSGAEVKKPGASVKVSCKISGHSLSELSIHWVRQTPTKGFEWMGGFDPEENEIVYAQRFQGRVTMTEDTSIDTAYLTLSSLRSDDTAVYYCAIVGSFSGYPYRPWGQGTMVTVSS VL: QAVLTQPSSVSGAPGQRVTISCTGSGSNIGAPYDVSWYQQLPGTAPKLLIYHNNKRPSGVPDRFSASKSGTSASLAITGLQADDEADYYCQSYDSSLSGSVFGGGTKVTVL
–	14.3	0.193	–	–	Antibody 17 (antibody, V domains shown, also called Ab17) VH: QVQLVQSGAEVKKPGASVKVSCKISGHSLSELSIHWVRQTPTKGFEWMGGFDPEENEIVYAQRFQGRVTMTEDTSIDTAYLTLSSLRSDDTAVYYCSIVGSFSPLTMGLWGKGTMVTVSS VL: QAVLTQPSSVSGAPGQRVTISCTGSGSNIGAPYDVSWYQQLPGTAPKLLIYHNNKRPSGVPDRFSASKSGTSASLAITGLQADDEADYYCATVEDGLSGSVFGGGTKVTVL
